From paper PMC7755189, “Phosphorylation of seryl-tRNA synthetase by ATM/ATR is essential for hypoxia-induced angiogenesis”

Biological target: SerRS AA (Homo sapiens, UniProt P49591 1-514, S101A;S241A)
Experiment: EMSA; not attenuated relative to WT; EMSA: 20 mM Tris-HCl pH 8.0, 60 mM KCl, 5 mM MgCl2, 0.1 mg/mL BSA, 10 ng/uL poly(dG-dC), 1 mM DTT, 30 min, room temperature; 0.08 pmol labeled DNA; 5% native PAGE
Details: protein: recombinant; tags: C-terminal His6; chain copies: 2; label: 5'-32P; annealed oligonucleotides

SerRS AA, sequence (P49591 whole entry S101A/S241A): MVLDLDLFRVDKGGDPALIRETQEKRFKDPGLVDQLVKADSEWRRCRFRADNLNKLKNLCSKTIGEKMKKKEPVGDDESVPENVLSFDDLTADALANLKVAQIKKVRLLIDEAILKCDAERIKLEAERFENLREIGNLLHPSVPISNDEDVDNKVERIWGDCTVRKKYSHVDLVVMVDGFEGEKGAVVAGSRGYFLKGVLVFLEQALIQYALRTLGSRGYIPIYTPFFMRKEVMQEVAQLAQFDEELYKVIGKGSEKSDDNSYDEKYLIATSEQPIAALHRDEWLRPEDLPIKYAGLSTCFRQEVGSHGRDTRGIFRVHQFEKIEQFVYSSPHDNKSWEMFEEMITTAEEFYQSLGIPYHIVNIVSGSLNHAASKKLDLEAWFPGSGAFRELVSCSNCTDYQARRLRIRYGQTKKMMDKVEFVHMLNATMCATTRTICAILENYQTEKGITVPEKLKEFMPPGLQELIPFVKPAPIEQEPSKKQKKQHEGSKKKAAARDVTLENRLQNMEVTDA

B1: VEGFA promoter SerRS binding site 27 bp (dsDNA)
DNA 1: GGCGGGGCGGAGCCATGCGCCCCCCCC
DNA 2: GGGGGGGGCGCATGGCTCCGCCCCGCC
  binding result: binds
